Assay results taken from the supplement of paper PMC11865577.

Tests used:
Experiment in all cases: pull-down binding Z-score (relative to library population); higher = stronger binding
[1] = system: TO-3-N3-2 (biotin conjugate); settings: RNA library: Library-2
Summary of the method: (§1)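 Heat-folded RNA library (1 μg, Cy5 or Cy3 end label, phosphate/NaCl/KCl buffer) was captured for 60 min at 25 °C on streptavidin beads displaying 100 pmol of biotin-conjugated small molecule, then washed three times. The bound fraction, eluted in hot SDS, was hybridised to a DNA barcode microarray at 55.5 °C for 20 h. Z-scores for binding were taken against the library mean and standard deviation after beads-only subtraction and trimmed averaging of replicate barcoded probes.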

TO-N3 (biotin conjugate) = settings: RNA library: Library-2
Summary of the method: as §1

[2] = system: G-clamp-N3 (biotin conjugate); settings: RNA library: Library-1 (pre-miRNA loops + repeats)
Summary of the method: as §1

[3] = system: TO-N3-2 (biotin conjugate); settings: RNA library: Library-2
Summary of the method: as §1

[4] = system: TO-3-N3 (biotin conjugate); settings: RNA library: Library-2
Summary of the method: as §1

Row | Sequence | pull-down binding Z-score [1] | pull-down binding Z-score (TO-N3 (biotin conjugate)) | pull-down binding Z-score [2] | pull-down binding Z-score [3] | pull-down binding Z-score [4]
1 | CUUGAUUUAAUGUCUAUACAAUUAAG [hsa-mir-124-3] | -0.0577 | -0.159 | -0.412 | -0.45 | -0.0185
2 | UUUUCGCUUUAUAUGUGACGAAAC [hsa-mir-495] | 0.125 | -0.787 | 0.0902 | -0.531 | -0.605
3 | GAUCCUUUGUUCUGGAUC [hsa-mir-7856] | -0.283 | -0.266 | 0.436 | -0.63 | 0.118
4 | CUCCGGGUUGGGG [hsa-mir-1469] | -0.476 | -0.718 | 0.177 | -0.557 | -0.552
5 | GAACCCAGGGAGCCAGACUGCCUGGGUUC [hsa-mir-607] | -0.182 | 0.843 | -0.0852 | -0.0198 | 1.05
6 | GGCAGGGUCCUCCAGCUCAUUCCUCCUGCC [hsa-mir-6829] | 0.56 | 0.491 | 0.723 | 0.71 | 0.564
7 | GCAGAAAUCACUCCAGGAGCAACUGA [hsa-mir-936] | 0.0585 | 0.625 | -0.3 | 0.712 | -0.365
8 | UCGUCAGUGUUUGA [hsa-mir-8073] | -0.295 | -0.468 | -0.342 | -0.296 | -0.443
9 | CCAAGCUUAGUUUGG [hsa-mir-1302-11_1302-10_1302-3_1302-2_1302-9] | -0.446 | 0.572 | 0.00542 | -0.61 | 0.74
10 | AGGUGGAAAGGGAGCAGGAGCAUCGUCUUUAAGAGGGUCAGGUACCUUUGCUCUUA [hsa-mir-6083] | 0.394 | 0.724 | 0.244 | 1.33 | -0.0151
11 | CAUACAUUUUGAAUAUGUAUG [hsa-mir-299] | -0.504 | 0.336 | -0.304 | -1.29 | 0.734
12 | CCUGCAGCCCCCAGGUGGGGGG [hsa-mir-4271] | -0.105 | 0.659 | 0.67 | 0.398 | 0.75
13 | AGCCCUGGGCUCCUCAGCAAACCUACUGGAU [hsa-mir-3174] | 0.3 | 0.857 | -1.41 | 0.975 | 0.494
14 | UUGACCAAUCAUCUUAUUGACUAGA [hsa-mir-6502] | -0.177 | -0.471 | -1.52 | -0.496 | -0.403
15 | GAUGCUGUCUAUUCUAAAGGUAC [hsa-mir-101-1] | -0.32 | -0.577 | -0.819 | 0.0666 | -0.772
16 | ACAGGUAGUGGCCACAGUGAGAAAGCUGGCCUGUCCUUCUGC [hsa-mir-4314] | 0.0324 | 0.245 | -0.00957 | 0.681 | -0.00864
17 | AGGUGCUAGGUCGGCCUCGGC [hsa-mir-5787] | 0.351 | 1.01 | 1.28 | 1.47 | 0.284
18 | CUCAAGUCCUCUAUUUCUUUGAA [hsa-mir-7978] | -0.54 | -0.484 | -1.16 | 0.0517 | -0.712
19 | UUGUCGUUAAAAAUAGCAA [hsa-mir-548n] | -0.149 | -0.847 | 0.889 | -0.863 | -0.497

Row | Sequence | pull-down binding Z-score [1] | pull-down binding Z-score (TO-N3 (biotin conjugate)) | pull-down binding Z-score [2] | pull-down binding Z-score [3] | pull-down binding Z-score [4]
20 | UGGGUUGUGUCAGUGUCAGACCUC [hsa-mir-146a] | -0.00346 | 0.187 | -0.421 | 0.838 | -0.496
21 | CCGCCUUUGUGCUGUCCUUGGAGGGAGG [hsa-mir-1910] | -0.0292 | 0.226 | 1.1 | 0.495 | 0.209
22 | GGAGCUCUGUGCCUUUGGGUCCUGGUGAGCUCU [hsa-mir-6070] | -0.129 | 0.413 | 0.246 | 0.681 | 0.271
23 | GACGUCCAAUCUCUUUGGGACGCC [hsa-mir-2682] | -0.309 | 0.419 | 2.24 | -0.436 | 0.551
24 | UGCUGUGCUGUGCUGAGCAGGGCUGAGCUG [hsa-mir-4539] | 0.178 | 1.07 | 0.347 | 1.46 | 0.29
25 | AGGCUCUGCAAGAUCAACCGAGCA [hsa-mir-330] | 0.141 | 0.492 | -0.474 | 0.739 | 0.196
26 | CUGGGUGGGACACUCAG [hsa-mir-4692] | 0.311 | 0.91 | -0.443 | 0.0278 | 1.24
27 | GGUGUCGAACUCAUGGCUGCCACC [hsa-mir-6782] | -0.167 | -0.065 | 0.197 | 0.629 | -0.346
28 | AUCAGGCAGUUUCCUG [hsa-mir-4289] | 0.101 | -0.16 | -1.29 | 0.0394 | -0.305
29 | ACACCUGUAAAGAAUUGGUCAGCCUGGGGACUGGUGAUCUCUGCAGCUGU [hsa-mir-4265] | 0.475 | 1.39 | -0.15 | 1.42 | 1.15
30 | UCCACCCCCAGAGAAUCCCUAAACCGGGGGUGGA [hsa-mir-1289-1] | -0.243 | -0.645 | -1.69 | -0.449 | -0.51
31 | GCUGGAUUUCCCAGCUUGACUCUAAC [hsa-mir-200a] | -0.242 | -0.337 | -0.177 | -0.215 | -0.14
32 | AUGUCCCUUUAGUUCAAAGU [hsa-mir-2052] | -0.0713 | -0.283 | -2.06 | -0.324 | -0.246
33 | GGUUUCGGGCUGCC [hsa-mir-661] | 0.067 | 0.249 | 0.142 | 0.74 | 0.148
34 | GGGUCAGGUCUGCAGCCUUGUAUCUGCUGAUCC [hsa-mir-6881] | -0.227 | -0.234 | -0.0593 | -0.107 | -0.183
35 | AUCAGCAGAGACAUGAGGUGAUCAAAAACCUUUUUUCAAAGCAGUGGG [hsa-mir-4300] | 0.276 | 0.796 | -0.911 | 0.438 | 0.48
36 | UCCGGCCGGCCAUGCUGGCGGGG [hsa-mir-762] | -0.506 | -0.676 | 0.45 | 0.213 | -0.72
37 | UUGAGGAGAGCACCACAGUGGUCAUCACACAG [hsa-mir-622] | 0.109 | 0.871 | -1.25 | 1.19 | 0.0413
38 | UUUGCUACUGAAAGUAAUGGCAAA [hsa-mir-548z] | -0.468 | -0.792 | 0.365 | -0.632 | -0.614

Row | Sequence | pull-down binding Z-score [1] | pull-down binding Z-score (TO-N3 (biotin conjugate)) | pull-down binding Z-score [2] | pull-down binding Z-score [3] | pull-down binding Z-score [4]
39 | CUGCAGGGACUGUGACACUGAA [hsa-mir-6816] | 0.24 | 0.85 | 1.64 | 1.22 | -0.0339
40 | CUCUGGUCUAUAAUGGGUUAAAUAGUAGAG [hsa-mir-609] | 0.234 | -0.191 | 0.305 | 0.131 | -0.334
41 | GCAGAUUCUCUCUCUC [hsa-mir-4279] | -0.0368 | 0.189 | -1.39 | 0.316 | 0.105
42 | CGGACGUUGCUCUCUACCCCG [hsa-mir-1247] | 0.262 | 0.839 | -0.101 | 1.03 | 0.389
43 | GGGAGCGGCCCUCACAUUGAUGGCUCCU [hsa-mir-6727] | -0.052 | 0.313 | 1.42 | 0.257 | 0.264
44 | GAGGAUGCAGGAGAGGAAGGGGGCUUCUUUUUGACGCCUACUUCAUCAGCUGCUCCUC [hsa-mir-4330] | 2.41 | 2.26 | 0.824 | 1.56 | 2.31
45 | CCAUGUGAGUGAAGCCUGAUCAUCAUGUG [hsa-mir-8070] | -0.318 | -0.232 | -0.0843 | 0.588 | -0.67
46 | CUGCUGCCGAUUCUGCACCAG [hsa-mir-4756] | -0.46 | -0.301 | -1.02 | 0.461 | -0.432
47 | AUGUGAUGUCACUGAGGAAAUCACAC [hsa-mir-216b] | -0.272 | -0.124 | 0.862 | -0.00778 | -0.223
48 | CUGAGUAACUUGUGCUUAUAACUCAG [hsa-mir-5000] | 0.379 | 0.194 | 0.251 | -0.396 | 0.396
49 | GUGUAUGGGCUGAGCCUUGC [hsa-mir-6805] | 0.0312 | 0.44 | 0.279 | 0.868 | -0.021
50 | UCCAGACGGAGAUGCGA [hsa-mir-611] | -0.000716 | 0.192 | -1.18 | 0.858 | -0.353
51 | CGUACGCUUUAUCUGUGACGUAUG [hsa-mir-411] | -0.338 | -0.611 | 0.625 | -0.0511 | -0.61
52 | AGCCCUGUUGUUGUAAGAUAGUGU [hsa-mir-550a-1] | -0.124 | -0.00359 | -0.249 | 0.346 | -0.325
53 | UUUAGAAAAGAGAAUUCCAAA [hsa-mir-1252] | -0.206 | -0.315 | -1.48 | -0.676 | -0.294
54 | GAGUCCUAUUUAUUUUUAGGAUAUUAGGAA [hsa-mir-5692c-2] | -0.148 | -0.394 | -0.397 | -0.62 | -0.421
55 | GUGAGCGCAGGUCUUUGGCAC [hsa-mir-4450] | 0.39 | 0.339 | 2.36 | 0.729 | 0.104
56 | UUCUGCUGUGCCUUACAGCAGUAGAA [hsa-mir-3179-4_3179-1_3179-3_3179-2] | -0.383 | 0.0349 | 0.67 | -0.695 | 0.188
57 | CGACUCCGUGGCAGAGUUCA [hsa-mir-3666] | -0.00234 | 0.805 | -1.1 | 0.845 | 0.331
